These results are taken from patent US20240034796A1 (GENUV, published 2024).

Where a chain is given by its changes, count along the chain named.

As a reminder, the Kd is the free concentration of one partner at which half of the binding sites on the other are occupied at equilibrium, for simple one-to-one binding. What is called koff is the rate constant with which the complex falls apart. For orientation: kon means the rate constant with which the complex forms.

For test [1], the target named is T1, human PD-1 protein (human, UniProt Q15116 25-167, limits assumed).
T1 construct: also called human PD-1 antigen
Kind of test: SPR, Biacore 8K, antibody captured on Protein A chip, human PD-1 as analyte, pH 7.4.

Test [2] deals with T1, human PD-1 protein. Kind of test: SPR, Biacore 8K, antibody captured on Protein A chip, human PD-1 as analyte, HBS-EP+ at pH 6.0. On the procedure:
(§1) The binding kinetics of each antibody to human PD-1 were measured through SPR (Surface Plasma Resonance) analysis using Biacore 8K (Cytiva), and the antibodies' binding affinities to the antigen were compared to one another.
(§2) Seven concentrations ([…]) of human PD-1 were flowed onto the sensor chip at a flow rate of 30 μL/min for an association phase of 120 s, followed by dissociation for 1800 s. Capture, association, and dissociation were performed in HBS-EP+buffer at pH 6.0. The chip was regenerated with glycine at pH 1.5 after each experiment. Association and dissociation curves were drawn using Cytiva evaluation software, and kinetics and affinity values were determined.
Background: In SPR one partner is held on a chip, and binding of the other changes the refractive index at the surface.

Test [3] concerns the target T1, human PD-1 protein. The test can be described thus: SPR (Biacore 8K), ratio between the values at pH 7.4 and pH 6.0, human PD-1 as analyte. The procedure:
as §1, §2

Test [4] has as its target T2, extracellular domain (ECD) PD-1 protein from human (human, UniProt Q15116 25-170).
T2 construct: the whole entry is named; also called human PD-1 antigen
The test can be described thus: protein-based ELISA, coated PD-1 ECD, antibody at 1 ug/ml. The procedure: (§3) To determine the cross-reactivity of the antibody to PD-1 antigens, protein-based ELISA was performed. To summarize the ELISA analysis, a 96-well plate (Thermo scientific) was coated with 10 ng of the extracellular domain (ECD) PD-1 proteins from human, mouse, rabbit, cynomolgus, and rat overnight at 4° C. […] After washing, a secondary antibody (anti-human IgG antibody) was added and incubated at 37° C. for 2 hours. After washing, TMB substrate (abcam) was added, and the color reaction was stopped with STOP solution (abcam). Absorbance at 450/650 nm was measured using a microplate reader (ThermoFisher).
In general terms: ELISA stands for enzyme-linked immunosorbent assay.

The target of test [5] is T3, extracellular domain (ECD) PD-1 protein from mouse (mouse, UniProt Q02242 25-169).
T3 construct: extracellular domain; also called mouse PD-1 antigen
T3 sequence (looked up): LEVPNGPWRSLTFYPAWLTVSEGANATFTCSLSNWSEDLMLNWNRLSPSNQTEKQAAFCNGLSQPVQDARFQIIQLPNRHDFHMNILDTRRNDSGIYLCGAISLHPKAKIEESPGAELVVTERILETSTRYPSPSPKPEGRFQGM
Described as above. On the procedure: as §3

The target in test [6] is T1, human PD-1 protein. The test can be described thus: SPR, binding kinetics to human PD-1.
For test [7], the target named is T1, human PD-1 protein. Kind of test: SPR; ratio against the U299-WT parent.
Test [8] addresses T1, human PD-1 protein. Kind of test: SPR, binding kinetics to human PD-1; parent run 1.
In test [9] the target is T1, human PD-1 protein. The test can be described thus: SPR, binding kinetics to human PD-1; parent run 2.

T1 sequence (Q15116 25-167 limits assumed): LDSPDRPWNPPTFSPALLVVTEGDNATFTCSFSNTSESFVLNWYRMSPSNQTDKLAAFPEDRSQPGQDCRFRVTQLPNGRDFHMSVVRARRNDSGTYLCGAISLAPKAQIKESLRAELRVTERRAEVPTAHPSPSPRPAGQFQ
T2 sequence (Q15116 25-170 limits assumed): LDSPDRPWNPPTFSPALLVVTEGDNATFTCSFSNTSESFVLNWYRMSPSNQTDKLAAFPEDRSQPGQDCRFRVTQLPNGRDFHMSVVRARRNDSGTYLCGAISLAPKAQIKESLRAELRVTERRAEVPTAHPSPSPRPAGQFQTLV

B1: 2E5 antibody (antibody, V domains shown)
VH: QVQLVQSGAEVKKPGSSVKVSCKASGFTFTTYYISWVRQAPGQGLEYLGYINMGSGGTNYNEKFKGRVTITADKSTSTAYMELSSLRSEDTAVYYCAIIGYFDYWGQGTMVTVSS
VL: DVVMTQSPLSLPVTLGQPASISCRSSQSLLDSDGGTYLYWFQQRPGQSPRRLIYLVSTLGSGVPDRFSGSGSGTDFTLKISRVEAEDVGVYYCMQLTHWPYTFGQGTKLEIK
In turn, B1 came in with a Kd in [1] of 12.6 nM. In addition, the Kd in [2] stood at 4.5 nM. Also, in test [3], the “Ratio(PH 7.4 vs PH6) KD” value amounted to 2.8, the “Ratio(PH 7.4 vs PH6) ka” value worked out at 3.4 and the “Ratio(PH 7.4 vs PH6) kd” value came to 0.8.

B2: humanized antibody 1G1-h68 (antibody, human IgG4, kappa, V domains shown)
VH: QVQLVQSGAEVKKPGASVKVSCKASGYTFTGYWMHWVRQAPGQGLEWIGMIHPNSDTTTYNEKFKNRVTMTRDTSISTAYMELSRLRSDDTAVYYCTGTDQAAWFAFWGQGTTVTVSS
VL: DIVMTQTPLSLSVTPGQPASISCRSSQNIVHSNGDTYLEWYLQKPGQSPQLLIYKVSKRFSGVPDRFSGSGSGTDFTLKISRVEAEDVGVYYCFQGSHVPWTFGGGTKVEIKR
notes: hIgG4 heavy chain, human kappa light chain
Take B2: the binding result in test [4] and in test [5] was “binds” throughout.

B3: AHF16556 (antibody, V domains shown)
VH: B2 VH with T59V, E62W, T97A, A102E, F105A
VL: DIVMTQTPLSLSVTPGQPASISCRSSQNIVRSQGDTYLEWYLQKPGQSPQLLIYKVSKRFSGVPDRFSGSGSGTDFTLKISRVEAEDVGVYYCFQGSHVPWTFGGGTKVEIK
In test [6], B3 yielded a Kd of 0.427 nM, a koff of 6.31e-05 s⁻¹ and a kon of 148000 M⁻¹ s⁻¹. In [7], the “Ratio (kD)” value was 5.27 and the “Ratio (kd)” value is 6.45.

B4: AHF16565 (antibody, V domains shown)
VH: B2 VH with T59V, E62W, T97A, A102E, F105H, A106G
VL: B3 VL
In test [6], B4 registered a Kd of 0.913 nM, a koff of 0.000118 s⁻¹ and a kon of 130000 M⁻¹ s⁻¹. In [7], the “Ratio (kD)” value amounted to 2.46 and the “Ratio (kd)” value was determined as 3.45.

B5: AHF16568 (antibody, V domains shown)
VH: B2 VH with T59I, E62W, T97A, A102E, F105M, A106G
VL: B3 VL
In [6], B5 registered a Kd of 0.241 nM, a koff of 3.52e-05 s⁻¹ and a kon of 146000 M⁻¹ s⁻¹. In test [7], the “Ratio (kD)” value was determined as 9.34 and the “Ratio (kd)” value was 11.6.

B6: AHF16570 (antibody, V domains shown)
VH: B2 VH with T59I, E62W, T97A, F105A, A106G
VL: B3 VL
In test [6], B6 displayed a Kd of 0.2 nM, an off-rate (koff) of 3.29e-05 s⁻¹ and a kon of 164000 M⁻¹ s⁻¹. For the same molecule, in test [7], the “Ratio (kD)” value is 11.2 and the “Ratio (kd)” value is 12.4.

B7: AHF16558 (antibody, V domains shown)
VH: B2 VH with T97A, A102E, F105H
VL: B3 VL
As to B7, in [6], the Kd worked out at 0.31 nM, the koff amounted to 7.69e-05 s⁻¹ and the kon came to 248000 M⁻¹ s⁻¹. Moreover, in test [7], the “Ratio (kD)” value came to 7.26 and the “Ratio (kd)” value amounted to 5.29.

B8: AHF16560 (antibody, V domains shown)
VH: B2 VH with T59I, T97A, A102E, F105H, A106G
VL: B3 VL
In test [6], B8 displayed a Kd of 0.331 nM, a koff of 6.74e-05 s⁻¹ and an association rate constant (kon) of 204000 M⁻¹ s⁻¹. Also, in test [7], the “Ratio (kD)” value turned out to be 6.8 and the “Ratio (kd)” value came to 6.04.

B9: humanized antibody 1G1-h61 (antibody, human IgG4, kappa, V domains shown)
VH: B2 VH with I48M, T97A
VL: B2 VL with Q50K
notes: as for B2
As for B9, the binding result in test [4] and in test [5] was “binds” in each case.

B10: AHF16566 (antibody, V domains shown)
VH: B2 VH with T59V, E62W, T97A, F105A
VL: B3 VL with R31H
Regarding B10, in test [6], the Kd is 0.349 nM, the koff amounted to 7.53e-05 s⁻¹ and the kon was determined as 215000 M⁻¹ s⁻¹. Besides, in [7], the “Ratio (kD)” value turned out to be 6.45 and the “Ratio (kd)” value is 5.41.

B11: AHF16561 (antibody, V domains shown)
VH: B2 VH with T59I, T97A, F105A, A106G
VL: B3 VL
With B11, in [6], the Kd is 0.302 nM, the dissociation rate constant (koff) worked out at 5.53e-05 s⁻¹ and the kon is 183000 M⁻¹ s⁻¹. Besides, in [7], the “Ratio (kD)” value turned out to be 7.45 and the “Ratio (kd)” value is 7.36.

B12: AHF16563 (antibody, V domains shown)
VH: B2 VH with T59V, E62W, T97A, A102E, F105M, A106G
VL: B3 VL with R31H
In test [6], B12 registered a Kd of 0.165 nM, a koff of 3.6e-05 s⁻¹ and a kon of 218000 M⁻¹ s⁻¹. Further, in test [7], the “Ratio (kD)” value amounted to 13.6 and the “Ratio (kd)” value is 11.3.

B13: AHF16564 (antibody, V domains shown)
VH: B2 VH with T97A, A102E, F105A, A106G
VL: B3 VL
For B13, in test [6], the affinity, expressed as Kd, was 0.16 nM; the koff is 3.68e-05 s⁻¹; the kon came to 230000 M⁻¹ s⁻¹. For the same molecule, in test [7], the “Ratio (kD)” value came to 14.1 and the “Ratio (kd)” value is 11.1.

B14: AHF16559 (antibody, V domains shown)
VH: B2 VH with T59V, T97A, F105H
VL: B3 VL with R31H
Regarding B14, in test [6], the Kd was 0.371 nM, the koff came out at 7.62e-05 s⁻¹ and the kon was 206000 M⁻¹ s⁻¹. Besides, in test [7], the “Ratio (kD)” value turned out to be 6.06 and the “Ratio (kd)” value came out at 5.34.

B15: AHF16557 (antibody, V domains shown)
VH: B2 VH with T59V, E62W, T97A, F105A, A106G
VL: B3 VL with R31H
In test [6], B15 displayed a Kd of 0.425 nM, an off-rate (koff) of 8.68e-05 s⁻¹ and a kon of 204000 M⁻¹ s⁻¹. Besides, in test [7], the “Ratio (kD)” value is 5.29 and the “Ratio (kd)” value stood at 4.69.

B16: AHF16569 (antibody, V domains shown)
VH: B2 VH with T59I, E62W, T97A, A102E, F105A
VL: B3 VL
In test [6], B16 came in with a Kd of 0.339 nM, a koff of 6.74e-05 s⁻¹ and a kon of 199000 M⁻¹ s⁻¹. Besides, in test [7], the “Ratio (kD)” value came out at 6.64 and the “Ratio (kd)” value turned out to be 6.04.

B17: humanized antibody 1G1-h70 (antibody, V domains shown)
VH: B2 VH with T97A
VL: B2 VL with N33Q
notes: hIgG4 heavy chain, human kappa light chain; also called 1G1-h70 parent antibody (WT); U299-WTI
B17: in [8], the Kd is 2.32 nM, the koff worked out at 0.000402 s⁻¹ and the kon is 174000 M⁻¹ s⁻¹. For the same molecule, in [9], the Kd turned out to be 2.17 nM, the koff was 0.000412 s⁻¹ and the kon was 190000 M⁻¹ s⁻¹. Besides, in test [5], the binding result is reported as “binds”. This molecule also returned a Kd in test [1] of 5.4 nM. This molecule also gave a Kd in test [2] of 0.9 nM. In addition, in test [3], the “Ratio(PH 7.4 vs PH6) KD” value amounted to 5.8, the “Ratio(PH 7.4 vs PH6) ka” value was found to be 2.3 and the “Ratio(PH 7.4 vs PH6) kd” value amounted to 2.7.
